Laboratory results from the supplement of paper PMC12636428.

Test system: Saccharomyces cerevisiae
Test: transcriptional activation domain activity (GFP:mCherry ratio, weighted mean of sorted bins, harmonized to initial dataset scale) (arbitrary fluorescence ratio units); higher = stronger transcriptional activation
Conditions: beta-estradiol 1 µM; induction time 4 h
Outline: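 Activation activity, the read-weighted mean of bin median fluorescence averaged across barcodes, was linearly mapped onto the scale of the initial dataset. It was measured for barcoded protein tiles fused to an estradiol-inducible synthetic transcription factor at URA3 in GFP-reporter yeast diploids. Cultures diluted 1:5 into SC with 1 uM beta-estradiol were held 4 hours at 30 °C, sorted into 8 bins by GFP:mCherry ratio, and barcode-sequenced, and tiles under 50 reads were discarded.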

| Sequence | transcriptional activation domain activity |
| --- | --- |
| KEEAGEEAEEASPAPSEQKEEAPPSGQKPQANTGKKKDQASPAKKTGATAAAK | 13700 |
| AAKPAPKKAPGRPKKAAAEPEPASEPTESEEPKPKKAGGRPRKAAAPAAEPEA | 40700 |
| GRHPEQHGVRYSLSKDSGATIVDIYLAHLLECLIPVVGRLKSVVSNLGTMRQT | 78200 |
| MWFLHPLPFPLASSTWLHFVVLSFYIFFFLPFPSCALVLFWCWFFLLVRLLTS | 39400 |
| MLPRLFFVAFATIPSPSSPLPPLPFLSSLAFFFSFFPHLISFLFVFFSFHTFF | 51400 |
| MCEQHTCLFVLLSVKLLLWRLLFFVESSFLDGMELVLTGRWWAYYIYLWCLTV | 54400 |
| CDAPKLGLSGATLFEMIRFLDLYQGDWDSFLSQILVHAQIIRVLREALLILTV | 65300 |
| IFSLILALIGMIILATIDVVHKIGVTYFACFLMAAGSYVPTVLVHSWHNNNNL | 50300 |
| ASAAASGASTPATAAPPGGLFGKTPATAAPAAATPAATKSLFPAAATTTAPAA | 45700 |
| MVQCAVAECTEEGKSQCGRCKQRFYCSADCQQKDWKVHKKNCKSPAATSAQLS | 23100 |
| IRSWGDAVLAHSPLFDHVDGDAACPCSRCCSGVIAWSFWERVIRIVPMHLFSA | 64500 |
| IELSRNFVNVPDFVCFFNLPDNLSVLYTLEIVYFGQLLLFHSIIYALVLIRFW | 47900 |
| GKRGSRGRGRGKGGKKKGKGREGAEEGEGGSRGRGEGGGKTGEGGRESRRRGE | 37600 |
| GRMIRMWKRWSVMAHGMNRLKHYANYLPRLIVLLNKTLPQDVADIIKFNMLVC | 39100 |
| MPDVIFKPPPADPCHYDMCLVLYYSVLFSHFIVGFFLRVLHLWCSLLHFYSRI | 63500 |
| TRKLVFKWPYVPYLLGRYTMICCLLFVWVLLVNPIDCVHNELFIALVACMAVC | 22500 |
| AEHVDLVGCPVHVMTRFWHLYLPAFTLHTVLYIFTLIRVLNCENSPQALLIRR | 56600 |
| PKDGAKEEKKSSKSRGEEKRSRSDRKEREREEKSSKGSASDKAEQPPKATASS | 6730 |
| RDNSFLHALIHRFHEVHIVAWCIEKVNFMYLHPGVPFYVLCDCTRGPAIMVLH | 51300 |
| RRVLVLVMEELGYRTDHAFRIAHRLDRLYQMALTRFLTLTAGVIDLMERIRMS | 58400 |
| SVGASSGSGSGSGKRRGEEGEEGDEGEEGEEGDEGEEGDEEEGVEELVQGEGQ | 7800 |

| Sequence | transcriptional activation domain activity |
| --- | --- |
| RRRFRNAKYFVHFIQLVRLLNICLQFEISNAEIEEVRVGFIAWVRRYEELYYQ | 42800 |
| MPPAPKSPQARRAGAPKAKGAVRAKSGCYTCRIRRKKCDEQMNPEGSCSTCVR | 37400 |
| MGLSSSCFFLLLLVLSLFYYFFLSFFFIGHVAYFMTCGGLERAFLYLLLLLLL | 49100 |
| MSENTAVENVTATLEKTKLEAPVTNEAEVAHAASAAEGRRLYIGNLAYSTTEE | 33100 |
| DSKLLPGFASYLSFCLFLYAITTVLPFFSLDCPYSTPLTPLMCRLYHFFMFGI | 66800 |
| MALYLTFRHCPELFYWVKLRRVSRKIHTFISSIFNIFLYVLMLMNGCIIHHYI | 57200 |
| GFFFAIACLFICQGWMLGGDQSIKSISLGGGFLCLFFFSLFSFLFASWCVWLC | 38700 |
| MPDVWLSWLVLSFAPSPPFHHFLWFWFCLIAWFIFFRPITWTFDTLFWFLFLP | 43400 |
| GHDGHGKGHGHGKGGHGRYARGEEAELEERGYGHGHGGHGKGGHGRYAREEEA | 21100 |
| MLLPVSYSWLPLLFIPTNASPAFIFLFFVCTYFLNRPCVYCSFLLLILFVTSC | 42200 |
| LFLSLSSACPSFFPLLPFPFLLAFLITFLAPFPSFLSLLVPHSVPIPLSLPTS | 49800 |
| LPTGSLLPGVGPLRSLIFDLELTRHIVDAYDLYDILFHPRTLPLLCHLTYLHI | 41800 |
| PAPAPMGRRTFAVDVDESAHSLAKKVKAARVRGYNYIIVVGERDAERGTAAVQ | 44800 |
| RLWLVRGPFTELFRRFLFSNIRFTSKVTIISYIGTYYAIGAAWIMTTANYLAI | 47600 |
| EPKKAKIGAPKRKKKEVIEDAEAGAGAETEEGEAPPKKKRGGRKAKPAKEEPV | 15600 |
| MCPVLFCFYSLMILIFFLSFLFRTSYIYTLYFPGLFVCCLFFLFLLFLSLSQW | 73200 |
| MISFVSIVSILLAKSAFLFYFLRQDSFLPNLVFCLCISLLLLLVCLLQWLLVC | 53700 |
| MLFVCFFWLWGWWLVVVVFVFLFFSFFLLLSSEFTDPFAFFCLFFFVLLHFSF | 44000 |
| SSFVLCLLQCLDVPSLVELTVRRVNSRLRLLLSCKVLLAGLVRLAIHGDIEMA | 52200 |
| VLLYTGLLKFFNLGVLTATLVEVCKRPWRIRMANGRVDRMKYFNLVFGIVWEC | 58700 |
| IRLMPFYSSPNVDVAEENLRCYENTAVFLLSNFQYLIVALVYCDGEPYRENIS | 41000 |

| Sequence | transcriptional activation domain activity |
| --- | --- |
| PCPETSTPPPPPPKPTTAYPPPKSSEAPPPPPPKPTTAYPPPPKSSEAPPPPP | 47900 |
| VHEQLEVALRRWRISSIMEGTRVRDVLIRLPLAHSFASLSSKVNILLHEMLFE | 45700 |
| TIVLEELRRASYWGRPSLERSWLLLDMTIKSFTGFIRLLDGDLARTICLFYLV | 76100 |
| VISDSEDEKPPAKKAKTEEKAEKEEAKEDPEAKAKAVKEKEEAALKLATTRIL | 40700 |
| MATLLGGFWFLVLCSIMLSALLTPLILLTGSLILLSFGSFPSLPHWLLIIIVH | 62400 |
| FWFPNYLFEALTFFSWMTWISPNNLNLEILTGFRNGLGMFNPWPTFDWNVLLF | 51500 |
| EKGEEGGSGGEGGEGRRGGQARGTGRRAGQEGKGPGKGEGGAARRRKEGEARK | 54500 |
| SKARSRGQSSRTRKRGRQESSGESSSSEEEDSYRGRQGRSKAGKKGKDKGKGK | 27200 |
| MSTAGHSRQPDHATVPARSFGGCSTCRRRHIKCDEGRPSCSACRDSGLACGGY | 53000 |
| SASAAAKPAAAPLKKSTSGSLASKPAMSSTKPAAAPAAAPARRASVVPAKSSA | 33900 |
| KPEPAGEKGEGAASGGEGQSGGEGGRRRPSGRGRGRGRGRGGRGGRANRGSRG | 38800 |
| HMLLRQFLILNLFNLIYLHLFLLLWLLLQQLLYLMILFKFPIPYLLALSYRLS | 55300 |
| MILHSSYLPLGVPPFSIYYILHTLGHSINKITKLLLSNLILRFLNCCTQLIVR | 53400 |
| MIVFLFWVIGINLDCNCWFSLFLILLMRVMDLMSYGWIIEVFFFLLNFYYLLF | 53700 |
| MYRWISSIDAICVHLWGYMKNLACLLLTHIFYCLASMCLLLVDTLITGVGNIP | 61100 |
| ARKAFLLIEHMLELEGPPLIWNLLEILHNIMHLKQGRLFNMLIIHLMSLARSH | 67400 |
| TFQPEHTCFPFFLFFFFLFFPPLSFFLPLFFPYSFSVAPLLSAPTVTTHTFTF | 52800 |
| PLGTVGLAKLVFVKMFGGAKRITITLISAALLMMAVRFFSIAHPFLLADNRHY | 62400 |
| TSKAQESKTKEGDKEEKAATKREKDDSKEEDDDDDNETEEKQAGDKRKKTNGS | 30800 |
| DRRYRISRGGSRMNQVVENTVSRWVGMLPTWRCGLLLHAFVHLKKVYWCPFLR | 72700 |
| YKVPTASLKDGCLCVNVASEKNFEKDVREKASIYLPSVGKVTILMLLRNLLRL | 55000 |

| Sequence | transcriptional activation domain activity |
| --- | --- |
| RRPRAAKPGTEQPKPETEKPGSEKRPGSEKRPRGRPRKAAAKPSTEKQPSNAK | 21300 |
| EEEGDEDVSGSEGSSRRKGRQRNEEEDDRSAGRRSHRLKDKSRSSTRNRRGSD | 13600 |
| EHVHVNKIPVRVSHGSGFELMGKSSFIFKGFRSLGILMLIFWSKANHILIVTV | 70700 |
| RQLVLLQKAEVDLFYMTVALILICALCAGLCLNIAIQARGTTLLTNWTQLEFC | 58300 |
| GSSDGGSHNAPGAPRPMALRALITTKEAGVIIGKNGKNVAEMREQSGAKITVS | 48900 |
| MVQCAVAECAEEGQSQCGRCKQRFYCSAECQQKDWAAHKKACKKPTATAGPAP | 39500 |
| HVDQWTVIEQCLLYHQTNFIYFLFFAPLPPFLCLFFLLFVSLVFLCFDPFPLI | 42500 |
| MCCAECCLSSLVSFVSFFSRSLHSLTIRGFFLFPGTFHVILFLFFRFFIFFFH | 47400 |
| KADEDAQTGEKRKAEEPAADTNGEKSKDEEPASKKAKTDEEEKTAGKAKKPGR | 24000 |
| EFFVLWVVQAIIGSRLEMYWAVLMICVLRCNQSYVSNACREVWLSWIIHGWVQ | 61500 |
| MYILDKIKGEKGKQEGGEREAERGRGGAGRGEQEQEGGAGAGRGSRSKKGEQG | 30700 |
| LIGMDQDVLGRWSQVIGEKGEGSLFSLALGPHQSNWLVLIRQACLLLLRSVAA | 51200 |
| VYILSFYLPSLFPSFFTHSLFFFLHLWSCSTSSQTNMRLPTLAFISLPFVLTF | 53600 |
| IPSHQFAFGRFMALSSTLGCKFFFSSFNSFFYIFFITLFFSLLLLPFFKNLFF | 39300 |
| DTIYIFHALLVVFWVSLMQEPAFPYKLLIPILYITILLIPFTSQVFLPAVPVL | 49400 |
| RRRRKARSARLKKAEKTAAAVGQEAKPKAENAEGASVPPRRKRRRARSRKPKK | 28100 |
| IQAYLVNFLSSACLMNFWVTLTFLLGGEPYHYSTYVLLVGWMFIYLILLFGLI | 37700 |
| KVGFVLIFLFALLVFTSIICSPIYVFSVPYSSICISLQVHRCCLFYGAVIWFV | 31300 |
| WKPDIYTCVMRMLLDRLHSALGSLHARSIIRKIRILVALAGNVAYRGYPLQMT | 48900 |
| MQIQALAFPSYCQNTLFMPCTSIVCLDFFFLLHIFPLVPRSLDVFFLFLLVHL | 76400 |
